Measured values published in US20220041746A1 (Sanofi, published 2022).
Values joined by “and” are separate entries in the source; they are usually repeats but may differ in a detail not shown here. Equal entries are not always repeated. Where two headings read alike, the source gives them in different places.

How the values were obtained:
[1] = molecular target: human CD28 (Cambridge Biologics LLC Cat 03-01-0303) (human, UniProt P10747 19-152); assay: ELISA on coated hCD28 IgG4
Method: The binding properties of the purified antibodies were analyzed either using ELISA or SPR methods. For ELISA, corresponding antigens for each binding site in the trispecific binding protein were used to coat a 96-well Immuno Plate (Nunc 439454, Thermo Fisher Scientific) overnight at 4° C. using 2 μg/ml each antigen m PBS(pH7.4). The coated plate was blocked using 5% skim milk 12% BSA in PBS for one hour at RT, followed by washing with PBS+[…] three times (Aqua Max 400, Molecular Devices). Serial dilution of antibodies (trispecific and control Abs) were prepared and added onto the ELISA plates (100 μl/well in duplicate), incubated at RT for one hour, followed by washing 5 times with PBS+0.25% Tween 20.
The reaction was terminated by adding 50 μl 1M H₂SO₄, and OD₄₅₀ was measured using SpectraMax M5 (Molecular Devices) and analyzed using SoltMax Pro6.3 software (Molecular Devices). The final data was transferred to GraphPad Prism software (GraphPad Software, CA. USA), and plotted as shown. EC50 was calculated using the same software.

[2] = molecular target: T1, human CD38 expressed on the cell surface (human, UniProt P28907 1-300); assay: flow cytometry on preB::300.19 cells
T1 construct: whole, on cells; also called hCD38-expressing cells; huCD38

[3] = molecular target: T2, cynomolgus monkey CD38 expressed on the cell surface (cynomolgus monkey, UniProt Q5VAN0 1-301); assay: flow cytometry on preB::300.19 cells
T2 construct: whole, on cells; also called cCD38-expressing cells

[4] = molecular target: T2, cynomolgus monkey CD38 expressed on the …; assay: flow cytometry on PréB cCD38 cells
Method: (§1) The recombinant cell line was described by J. Deckket et al. 2014 Clin. Cancer Res 20:4574-4583. […] Antibody binding was evaluated after centrifugation and resuspension of cells by adding 200 μl/well PBS 1% BSA and read using Guava® easyCyte™ 8HT Flow Cytometry System. Apparent KD and EC50 values were estimated using BIOST®T-BINDING and BIOST®T-SPEED software, respectively.

[5] = molecular target: T1, human CD38 expressed on the cell surface; assay: flow cytometry on PréB hCD38 cells
Method: as §1

[6] = molecular target: T3, recombinant human CD38 (SPR of Example 4) (human, UniProt P28907 45-300, limits assumed); assay: SPR; KD rounded to an integer; first value of the pair, taken for CD3mid
[7] = molecular target: human CD28 (SPR of Example 4) (human, UniProt P10747 19-152, limits assumed); assay: as above
[8] = molecular target: T3, recombinant human CD38 (SPR of Example …); assay: SPR (column 'KD value against rec. protein by SPR (nM)'); first value of the pair, taken for CD3mid
[9] = molecular target: T1, human CD38 expressed on the cell surface; assay: flow cytometry, 'Apparent KD value against rec. cells by FACS (nM)'; single value of the mid/low row, equal to the EC50 of the CD3mid protein in FIG. 6C
Method: as §1

[10] = molecular target: T4, hCD38-his (SEQ ID NO: 2) (human, UniProt P28907 45-300); assay: ELISA on hCD38::Histag
T4 construct: His-tagged soluble protein derived from isoform A; also called human CD38-histag; hCD38::Histag

[11] = molecular target: T4, hCD38-his (SEQ ID NO: 2); assay: ELISA (column ELISA EC50 nM, hu)
[12] = molecular target: T5, cCD38-his (SEQ ID NO: 4) (cynomolgus monkey, UniProt Q5VAN0 46-301); assay: ELISA on cynoCD38::Histag [Cont.]
T5 construct: His-tagged soluble protein; also called cyno CD38-histag; cynoCD38::Histag

[13] = molecular target: T6, CD38 isoform A (SEQ ID NO:1) (human, UniProt P28907 45-300); assay: ELISA, plate coated with the CD38 isoform
T6 construct: also called huCD38 isoform A
Method: (§2) 96-well plates were coated with either isoform at 0.5 μg/well in PBS and 100 μL/well of antibodies were added to the plate. The plate was incubated at 37° C. for 1 h and washed five times with PBS containing 0.05% Tween-20 (PBS-T). […] Following incubation at 37° C. for 1 h in darkness, plates were washed with PBS-T five times. Antibody binding w as visualized by adding TMB-H2O2 buffer and read at a wavelength of 450 nm. EC50 values were estimated using BIOST@T-SPEED software.

[14] = molecular target: T7, CD38 isoform E (SEQ ID NO:105) (human, UniProt P28907 45-195, limits assumed); assay: ELISA, plate coated with the CD38 isoform
T7 construct: also called huCD38 isoform E
Method: as §2

[15] = molecular target: T5, cCD38-his (SEQ ID NO: 4); assay: ELISA (column ELISA EC50 nM, cyno)
[16] = molecular target: T1, human CD38 expressed on the cell surface; assay: flow cytometry (column FACS EC50 nM, hu)
Method: as §1, with “Clin” for “Clin.”, “μL/well” for “μl/well”, “easvCyte™” for “easyCyte™”, “BIOST@T-BINDING” for “BIOST®T-BINDING”, “BIOST@T-SPEED” for “BIOST®T-SPEED”

[17] = molecular target: T1, human CD38 expressed on the cell surface; assay: flow cytometry on preB::300.19 cells, apparent KD
Method: as §1, with “Clin” for “Clin.”, “μL/well” for “μl/well”, “easvCyte™” for “easyCyte™”, “BIOST@T-BINDING” for “BIOST®T-BINDING”, “BIOST@T-SPEED” for “BIOST®T-SPEED”

[18] = molecular target: T2, cynomolgus monkey CD38 expressed on the …; assay: flow cytometry on preB::300.19 cells, apparent KD
Method: as §1, with “Clin” for “Clin.”, “μL/well” for “μl/well”, “easvCyte™” for “easyCyte™”, “BIOST@T-BINDING” for “BIOST®T-BINDING”, “BIOST@T-SPEED” for “BIOST®T-SPEED”

[19] = molecular target: T1, human CD38 expressed on the cell surface; assay: flow cytometry on preB::300.19 cells, apparent KD; remark: listed apart in the source
Method: as §1

[20] = molecular target: T2, cynomolgus monkey CD38 expressed on the …; assay: flow cytometry on preB::300.19 cells, apparent KD; remark: listed apart in the source
Method: as §1

[21] = molecular target: T2, cynomolgus monkey CD38 expressed on the …; assay: flow cytometry (column FACS EC50 nM, cyno)
Method: as §1, with “Clin” for “Clin.”, “μL/well” for “μl/well”, “easvCyte™” for “easyCyte™”, “BIOST@T-BINDING” for “BIOST®T-BINDING”, “BIOST@T-SPEED” for “BIOST®T-SPEED”

[22] = molecular target: T1, human CD38 expressed on the cell surface; assay: flow cytometry (FACS) on 300.19 PreB hCD38 cells
Method: as §1, with “Clin” for “Clin.”, “μL/well” for “μl/well”, “easvCyte™” for “easyCyte™”, “BIOST@T-BINDING” for “BIOST®T-BINDING”, “BIOST@T-SPEED” for “BIOST®T-SPEED”

[23] = molecular target: T4, hCD38-his (SEQ ID NO: 2); assay: SPR, mAb captured via anti-human Fc, soluble CD38-his injected
Method: (§3) The binding properties of the anti-huCD38 mabs were evaluated using a BIAcore 2000 (BIAcore Inc., Uppsala, Ni). […] The surface was regenerated between injections using 30 μL of 50 mM NaOH-1 M NaCl. Individual sensorgrams wore analyzed using BIAsimulation software.

[24] = molecular target: T5, cCD38-his (SEQ ID NO: 4); assay: as above
Method: as §3

[25] = molecular target: T2, cynomolgus monkey CD38 expressed on the …; assay: flow cytometry (FACS) on 300.19 PreB cynoCD38 cells [Cont.]
Method: as §1, with “Clin” for “Clin.”, “μL/well” for “μl/well”, “easvCyte™” for “easyCyte™”, “BIOST@T-BINDING” for “BIOST®T-BINDING”, “BIOST@T-SPEED” for “BIOST®T-SPEED”

B1: Control CD38xCD3 antibody (bispecific antibody)
benchmark heavy chain 1 (binds CD38): EVQLVESGGGLVQPGGSLRLSCAASGFTFSYSWMNWVRQAPGKGLEWVSEINPQSSTINYATSVKGRFTISRDNSKNTLYLQMNSLRAEDTAVYYCARYGNWFPYWGQGTLVTVSSASTKGPSVFPLAPSSKSTSGGTAALGCLVKDYFPEPVTVSWNSGALTSGVHTFPAVLQSSGLYSLSSVVTVPSSSLGTQTYICNVNHKPSDTKVDKKVEPKSCDKTHTCPPCPAPPVAGPSVFLFPPKPKDTLMISRTPEVTCVVVDVKHEDPEVKFNWYVDGVEVHNAKTKPREEEYNSTYRVVSVLTVLHQDWLNGKEYKCKVSNKALPAPIEKTISKAKGQPREPQVYTLPPSREEMTKNQVSLTCDVSGFYPSDIAVEWESDGQPENNYKTTPPVLDSDGSFFLYSKLTVDKSRWEQGDVFSCSVMHEALHNHYTQKSLSLSPGK
benchmark heavy chain 2 (binds CD3): not shown
benchmark light chain (binds CD38): DIVMTQSPSSLSASVGDRVTITCRASQNVDTWVAWYQQKPGQSPKALIYSASYRYSGVPDRFTGSGSGTDFTLTISSLQPEDFATYFCQQYDSYPLTFGGGTKLEIKRTVAAPSVFIFPPSDEQLKSGTASVVCLLNNFYPREAKVQWKVDNALQSGNSQESVTEQDSKDSTYSLSSTLTLSKADYEKHKVYACEVTHQGLSSPVTKSFNRGEC
notes: also called benchmark control CD38×CD3 bispecific antibody
binding result [1]: no binding (tested: 10^4 pM)

B2: CD38VH1×CD28cvn×CD3mid IgG4 (other)
VH 1: QVQLVQSGAEVVKPGASVKVSCKASGYTFTSYAMHWVKEAPGQRLEWIGYIYPGQGGTNYNQKFQGRATLTADTSASTAYMELSSLRSEDTAVYFCARTGGLRRAYFTYWGQGTLVTVSS
VL 1: DIVLTQSPATLSLSPGERATISCRASQSVSSYGQGFMHWYQQKPGQPPRLLIYGASSRATGIPARFSGSGSGTDFTLTISPLEPEDFAVYYCQQNKEDPWTFGGGTKLEIK
VH 2: QVQLQESGPGLVKPSQTLSLTCTVSGFSLSDYGVHWVRQPPGKGLEWLGVIWAGGGTNYNPSLKSRKTISKDTSKNQVSLKLSSVTAADTAVYYCARDKGYSYYYSMDYWGQGTTVTVSS
VL 2: DIVLTQSPASLAVSPGQRATITCRASESVEYYVTSLMQWYQQKPGQPPKLLIFAASNVESGVPARFSGSGSGTDFTLTINPVEANDVANYYCQQSRKVPYTFGQGTKLEIK
VH 3: QVQLVESGGGVVQPGRSLRLSCAASGFTFTKAWMHWVRQAPGKQLEWVAQIKDKSNSYATYYADSVKGRFTISRDDSKNTLYLQMNSLRAEDTAVYYCRGVYYALSPFDYWGQGTLVTVSS
VL 3: DIVMTQTPLSLSVTPGQPASISCKSSQSLVHNNANTYLSWYLQKPGQSPQSLIYKVSNRFSGVPDRFSGSGSGTDFTLKISRVEAEDVGVYYCGQGTQYPFTFGSGTKVEIK
notes: also called CD38VH1×CD28evn×CD3mid; CD38VH1 × CD28cyn × CD3mid IgG4
fold lower apparent affinity than the parental mAb2 antibody [2]: 9 fold
fold lower apparent affinity than the parental mAb2 antibody [3]: 7.5 fold
EC50 [4]: 7.5 nM and 1.12 µg/mL
EC50 [5]: 4.4 nM and 0.663 µg/mL
Kd [6]: 4 nM
Kd [7]: 18 nM
Kd [8]: 4 nM
Kd [9]: 4.4 nM

B3: mAb2 (antibody, human IgG1, kappa, V domains shown)
VH: QVQLVQSGAEVVKPGASVKVSCKASGYTFTSYAMHWVKEAPGQRLEWIGYIYPGQGGTNYNQKFQGRATLTADTSASTAYMELSSLRSEDTAVYFCARTGGLRRAYFTYWGQGTLVTVSS
VL: DIVLTQSPATLSLSPGERATISCRASQSVSSYGQGFMHWYQQKPGQPPRLLIYGASSRATGIPARFSGSGSGTDFTLTISPLEPEDFAVYYCQQNKEDPWTFGGGTKLEIKR
notes: also called antiCD38_C2-CD38-1_VH1-VL1; CD38VH1
EC50 [10]: 0.11 nM
EC50 [11]: 0.11 nM
EC50 [12]: 0.1 nM
EC50 [13]: 0.14 nM
EC50 [14]: 0.1 nM
EC50 [15]: 0.1 nM
EC50 [4]: 1 nM and 0.147 µg/mL
EC50 [5]: 0.5 nM and 0.0694 µg/mL
EC50 [16]: 0.33 nM
Kd [17]: 0.33 nM
Kd [18]: 0.75 nM
Kd [19]: 0.5 nM
Kd [20]: 1 nM
EC50 [21]: 0.76 nM
EC50 [22]: 0.33 nM
Kd [23]: 0.332 nM
koff [23]: 0.00039 s⁻¹
Kd [24]: 3.44 nM
koff [24]: 0.000784 s⁻¹
EC50 [25]: 0.76 nM and 0.114 µg/mL
